Measured values reported in paper PMC9544323, “Abscisic acid regulates stomatal production by imprinting a SnRK2 kinase–mediated phosphocode on the master regulator [sequence]” (Science Advances, 2022).

B1: MBP-SnRK2.6 (maltose-binding protein-tagged SnRK2.6) (enzyme, Arabidopsis thaliana, UniProt Q940H6 1-362, looked up)
chain: MDRPAVSGPMDLPIMHDSDRYELVKDIGSGNFGVARLMRDKQSNELVAVKYIERGEKIDENVKREIINHRSLRHPNIVRFKEVILTPTHLAIVMEYASGGELFERICNAGRFSEDEARFFFQQLISGVSYCHAMQVCHRDLKLENTLLDGSPAPRLKICDFGYSKSSVLHSQPKSTVGTPAYIAPEVLLKKEYDGKVADVWSCGVTLYVMLVGAYPFEDPEEPKNFRKTIHRILNVQYAIPDYVHISPECRHLISRIFVADPAKRISIPEIRNHEWFLKNLPADLMNDNTMTTQFDESDQPGQSIEEIMQIIAEATVPPAGTQNLNHYLTGSLDIDDDMEEDLESDLDDLDIDSSGEIVYAM
notes: SnRK2.6/SRK2E/OST1, subclass III SNF1-related protein kinase 2, Arabidopsis thaliana; cDNA cloned into pETG-40A; also called SRK2E; OPEN STOMATA 1; source: E. coli ArcticExpress (DE3), purified (MBP amylose resin)
B2: MBP-SnRK2.3 (maltose-binding protein-tagged SnRK2.3) (enzyme, Arabidopsis thaliana, UniProt Q39193 1-361, looked up)
chain: MDRAPVTTGPLDMPIMHDSDRYDFVKDIGSGNFGVARLMRDKLTKELVAVKYIERGDKIDENVQREIINHRSLRHPNIVRFKEVILTPTHLAIIMEYASGGELYERICNAGRFSEDEARFFFQQLLSGVSYCHSMQICHRDLKLENTLLDGSPAPRLKICDFGYSKSSVLHSQPKSTVGTPAYIAPEVLLRQEYDGKIADVWSCGVTLYVMLVGAYPFEDPEEPRDYRKTIQRILSVKYSIPDDIRISPECCHLISRIFVADPATRISIPEIKTHSWFLKNLPADLMNESNTGSQFQEPEQPMQSLDTIMQIISEATIPAVRNRCLDDFMTDNLDLDDDMDDFDSESEIDIDSSGEIVYAL
notes: SnRK2.3/SRK2I, subclass III SNF1-related protein kinase 2, Arabidopsis thaliana; cDNA cloned into pETG-40A; also called SRK2I; source: E. coli ArcticExpress (DE3), purified (MBP amylose resin)
B3: MBP-SnRK2.2 (maltose-binding protein-tagged SnRK2.2) (enzyme, Arabidopsis thaliana, UniProt Q39192 1-362, looked up)
chain: MDPATNSPIMPIDLPIMHDSDRYDFVKDIGSGNFGVARLMTDRVTKELVAVKYIERGEKIDENVQREIINHRSLRHPNIVRFKEVILTPSHLAIVMEYAAGGELYERICNAGRFSEDEARFFFQQLISGVSYCHAMQICHRDLKLENTLLDGSPAPRLKICDFGYSKSSVLHSQPKSTVGTPAYIAPEILLRQEYDGKLADVWSCGVTLYVMLVGAYPFEDPQEPRDYRKTIQRILSVTYSIPEDLHLSPECRHLISRIFVADPATRITIPEITSDKWFLKNLPGDLMDENRMGSQFQEPEQPMQSLDTIMQIISEATIPTVRNRCLDDFMADNLDLDDDMDDFDSESEIDVDSSGEIVYAL
notes: SnRK2.2/SRK2D, subclass III SNF1-related protein kinase 2, Arabidopsis thaliana; cDNA cloned into pETG-40A; also called SRK2D; source: E. coli ArcticExpress (DE3), purified (MBP amylose resin)

Target: T1, GST-SPCH (glutathione S-transferase-tagged …) (Arabidopsis thaliana, UniProt Q700C7 1-364)
T1 construct: cDNA cloned into pDEST15; cDNA recombined into pDEST15; also called GST-tagged SPCH; source: E. coli ArcticExpress (DE3), purified (Pierce Glutathione Agarose)
T1 sequence (looked up): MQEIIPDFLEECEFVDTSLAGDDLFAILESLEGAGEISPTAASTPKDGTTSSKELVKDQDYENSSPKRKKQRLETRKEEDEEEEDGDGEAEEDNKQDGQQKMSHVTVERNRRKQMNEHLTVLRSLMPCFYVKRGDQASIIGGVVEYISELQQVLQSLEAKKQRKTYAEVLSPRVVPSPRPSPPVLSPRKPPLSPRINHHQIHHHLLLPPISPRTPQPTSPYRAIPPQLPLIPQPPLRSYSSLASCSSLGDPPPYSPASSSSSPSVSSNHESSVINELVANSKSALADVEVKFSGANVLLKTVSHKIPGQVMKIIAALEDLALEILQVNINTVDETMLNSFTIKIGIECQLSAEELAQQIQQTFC
Assay: pull-down; GST-SPCH or GST (1 ug) on Pierce Glutathione Agarose; MBP-SnRK2.2/2.3/2.6 or MBP alone (1 ug) added; 4 C, 2 hours; washed five times with 20 mM tris-HCl pH 7.5, 300 mM NaCl, 0.1% NP-40, 1 mM EDTA; blot with anti-MBP
Conditions: both partners purified

Binding result, binds:
B1, B2, B3
